The source of these data is patent publication US20240158480A1 (ACADEMY OF MILITARY MEDICAL SCIENCE PLA, published 2024).

As a reminder, the EC50 is the midpoint of the concentration-response curve.

Assay [1] addresses NiV-BD G (Nipah virus, Bangladesh strain (NiV-BD)). The assay is described as follows: cell-based or functional assay.
The target is the same in assay [2]. The assay is described as follows: ELISA, G protein coated at 1 µg/mL, antibody titrated 1:3 from 20 µg/mL. (In general: In an ELISA, binding on a coated surface is turned into a signal by an enzyme label.)
Assay [3] addresses T1, NiV-MY G (Nipah virus, Malaysia strain (NiV-MY), UniProt Q9IH62 71-602).
T1 sequence: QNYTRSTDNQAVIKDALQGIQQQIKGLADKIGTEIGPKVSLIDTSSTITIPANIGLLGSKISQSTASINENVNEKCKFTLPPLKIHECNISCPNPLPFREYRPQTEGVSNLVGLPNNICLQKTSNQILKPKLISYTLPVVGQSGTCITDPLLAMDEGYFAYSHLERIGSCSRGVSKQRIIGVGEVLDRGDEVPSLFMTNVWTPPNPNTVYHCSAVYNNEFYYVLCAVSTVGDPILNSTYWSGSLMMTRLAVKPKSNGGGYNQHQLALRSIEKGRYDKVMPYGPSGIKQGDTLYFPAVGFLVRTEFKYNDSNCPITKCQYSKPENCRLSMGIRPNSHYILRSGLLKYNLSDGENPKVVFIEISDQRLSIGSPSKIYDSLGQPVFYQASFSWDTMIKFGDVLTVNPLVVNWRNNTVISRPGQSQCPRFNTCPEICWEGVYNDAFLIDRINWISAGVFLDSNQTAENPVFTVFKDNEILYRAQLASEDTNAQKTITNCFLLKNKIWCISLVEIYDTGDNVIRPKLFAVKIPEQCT
The assay is described as follows: cell-based or functional assay.

For assay [4], the target named is T1, NiV-MY G. The assay is described as follows: ELISA, G protein coated at 1 µg/mL, antibody titrated 1:3 from 20 µg/mL.

B1: 1F9 (antibody, V domains shown)
VH: QVQLQESGPGLVKPSETLSLSCAVSGGSFSDYWWGWIRQSPGKGLEWIGSIYGSSGRTAYSPSLKSRATISRDTSKNQLFLRLTSVTAADTGVYYCTNERFYGDSNRFDVWGPGVLVTVSS
VL: QPVLTQPTSLSASPGASARLTCTLSSGISVGNYRIFWYQQKPGSPPRYLLNYHTDSDKHQGSGVPSRFSGSKDASANAGILLISGLQSEDEADYYCMIWHNNVDVFGGGTKLTVLR
As to B1, the neutralization of HIV-NiV-BD pseudovirus (luciferase, 293T cells) in assay [1] came to 100%. For the same molecule, the EC50 in assay [2] was determined as 0.015 µg/mL.

B2: 2B6 (antibody, V domains shown)
VH: QVQLVQSGAEVKKPGASVKLSCKASGYTFTSFYINWVRQAPGQVLEWMGWINPSNGDTGYAQKFQGRVTMSRDTSTSTAYMELSSLRSEDTAVYYCTRETVGSGTFDCWGQGVLVTVSS
VL: DIVMTQTPLSLSVTLGEPASISCRSSQSLVYSAGKTYLDWYLQKPGQSPQLLIYLVSKRASGVPDKFSGSGSGTDFTLKISRVEAEDVGVYYCMQALRSPLTFGGGTKVELK
notes: also called antibody 2B6; monoclonal antibody 2B6; copies: 2 + 2
For B2, the “half inhibiting concentration (IC50), NiV-MY pseudovirus neutralization” value with NiV-MY G [3] came out at 0.0283 µg/mL. Also, the EC50 with NiV-MY G [4] worked out at 0.00956 µg/mL; in assay [2], 0.0054 µg/mL. For the same molecule, the neutralization of HIV-NiV-BD pseudovirus (luciferase, 293T cells) in assay [1] is 100%.

B3: 1A9 (antibody, V domains shown)
VH: VQLQESGPGLVKPSETLSLTCAVSGDSISTGYDWTWIRQPPGKGLEWIGYIGGSSGNTNYNPSLKSRVTISKDTSKNQFSLKLSSVTAADTAVYYCARDGTRVYYYGLDSWGQGVVVTVSS
VL: ETVVTQEPSLSVSPGGTVTLTCGLSSGSVSTSNYPSWFQQTPGQAPRMLIYSTNIRPSGVPNRFSGSILGNKAALTITGAQADDESDYYCFFSMVSGTSVFGGGTRLTVLR
B3: the EC50 in assay [2] came out at 0.0183 µg/mL.

B4: 1D11 (antibody, V domains shown)
VH: EVQLVESGGGLVQPGGSLRLSCAASGFTFSSYDMSWVRQAPGKGLEWVSSISSVTSYISYADSVKGRFTISRDNAKNSLSLQMNSLKTEDTAVYYCTTENWNFDFWGQGVLVTVSS
VL: DVVMTQSPLSLATTPGQPASISCRSSQSLVHSNGNTYLSWYQQKPGQPPRLLIYEVSNRDSGVPDRFSGSGAGTDFTLKISRVEAEDVGVYYCGQGTHWPPFTFGPGTKLDIK
notes: also called antibody 1D11; monoclonal antibody 1D11; copies: 2 + 2
B4: the “half inhibiting concentration (IC50), NiV-MY pseudovirus neutralization” value with NiV-MY G [3] came out at 0.0579 µg/mL. In addition, the concentration for a half-maximal effect (EC50) with NiV-MY G [4] was 0.0202 µg/mL; in assay [2], 0.00991 µg/mL. This molecule registered a neutralization of HIV-NiV-BD pseudovirus (luciferase, 293T cells) in assay [1] of 100%.
